Where no end group is shown, it is not given here. [ ]: non-standard residue; d: D form. AEEA = NCCOCCOCC(=O)O
Assays:
[1] = biological target: 3D5F7 monoclonal antibody, Fab' fragment coupled to alkaline phosphatase; assay: VIDAS one-step sandwich immunoassay; capture 19C7+B90 on tip, detection 3D5F7+7B9 Fab'-alkaline phosphatase; peptide (20 ng/mL peptide)
[2] = biological target: 3D5F7 monoclonal antibody, Fab' fragment coupled to alkaline phosphatase; assay: VIDAS one-step sandwich immunoassay; capture 19C7+B90 on tip, detection 3D5F7+7B9 Fab'-alkaline phosphatase; peptide at (500 ng/mL peptide)
[3] = biological target: 3D5F7 monoclonal antibody, Fab' fragment coupled to alkaline phosphatase; assay: VIDAS one-step sandwich immunoassay; capture 19C7+B90 on tip, detection 3D5F7+7B9 Fab'-alkaline phosphatase; peptide (100 ng/mL peptide)
[4] = biological target: 3D5F7 monoclonal antibody, Fab' fragment coupled to alkaline phosphatase; assay: VIDAS one-step sandwich immunoassay; capture 19C7+B90 on tip, detection 3D5F7+7B9 Fab'-alkaline phosphatase; peptide at (2000 ng/mL peptide)
[5] = biological target: 3D5F7 monoclonal antibody, Fab' fragment coupled to alkaline phosphatase; assay: VIDAS one-step sandwich immunoassay; capture 19C7+B90 on tip, detection 3D5F7+7B9 Fab'-alkaline phosphatase; peptide at (1000 ng/mL peptide)
[6] = biological target: 3D5F7 monoclonal antibody, Fab' fragment coupled to alkaline phosphatase; assay: VIDAS one-step sandwich immunoassay; capture 19C7+B90 on tip, detection 3D5F7+7B9 Fab'-alkaline phosphatase; peptide (50 ng/mL peptide)
[7] = biological target: 3D5F7 monoclonal antibody, Fab' fragment coupled to alkaline phosphatase; assay: VIDAS one-step sandwich immunoassay; capture 19C7+B90 on tip, detection 3D5F7+7B9 Fab'-alkaline phosphatase; peptide at (4000 ng/mL peptide)
[8] = biological target: 3D5F7 monoclonal antibody, Fab' fragment coupled to alkaline phosphatase; assay: VIDAS one-step sandwich immunoassay; capture 19C7+B90 on tip, detection 3D5F7+7B9 Fab'-alkaline phosphatase; peptide (200 ng/mL peptide)
[9] = biological target: 3D5F7 monoclonal antibody, Fab' fragment coupled to alkaline phosphatase; assay: VIDAS one-step sandwich immunoassay; capture 19C7+B90 on tip, detection 3D5F7+7B9 Fab'-alkaline phosphatase; compound at (20 ng/mL peptide)
[10] = biological target: 3D5F7 monoclonal antibody, Fab' fragment coupled to alkaline phosphatase; assay: VIDAS one-step sandwich immunoassay; capture 19C7+B90 on tip, detection 3D5F7+7B9 Fab'-alkaline phosphatase; compound at (1 ng/mL peptide)
[11] = biological target: 3D5F7 monoclonal antibody, Fab' fragment coupled to alkaline phosphatase; assay: VIDAS one-step sandwich immunoassay; capture 19C7+B90 on tip, detection 3D5F7+7B9 Fab'-alkaline phosphatase; compound (50 ng/mL peptide)
[12] = biological target: 3D5F7 monoclonal antibody, Fab' fragment coupled to alkaline phosphatase; assay: VIDAS one-step sandwich immunoassay; capture 19C7+B90 on tip, detection 3D5F7+7B9 Fab'-alkaline phosphatase; compound (5 ng/mL peptide)
[13] = biological target: 3D5F7 monoclonal antibody, Fab' fragment coupled to alkaline phosphatase; assay: VIDAS one-step sandwich immunoassay; capture 19C7+B90 on tip, detection 3D5F7+7B9 Fab'-alkaline phosphatase; (10 ng/mL peptide)
[14] = biological target: 3D5F7 monoclonal antibody, Fab' fragment coupled to alkaline phosphatase; assay: VIDAS one-step sandwich immunoassay; capture 19C7+B90 on tip, detection 3D5F7+7B9 Fab'-alkaline phosphatase; peptide at 2 ng/mL

B1: Noncoupled peptide 1 (peptide)
peptide: ATEPHAKKKCAGLGFAELQDL
modifications: (Ado)2 (dimer of 8-amino-3,6-dioxaoctanoic acid) between ATEPHAKKK and C and between C and AGLGFAELQDL; C-terminal amide
B1 gave a signal in RFV [1] of 2 RFV, a signal in RFV [2] of 1820 RFV and a signal in RFV [3] of 69 RFV. For the same binder, the signal in RFV [4] was 6140 RFV, the signal in RFV [5] was 3800 RFV and the signal in RFV [6] was 21 RFV. It also gave a signal in RFV [7] of 7540 RFV and a signal in RFV [8] of 356 RFV.

B2: Compound 3 (Peptide 1 - IgG) (peptide, part only; not given: polyclonal rabbit IgG carrier, part only)
peptide: ATEPHAKKK[AEEA][AEEA]CAGLGFAELQDL-NH2
modifications: not fully specified (some residues); numbers in words are those of the source; also: Cys thioether-coupled to IgG carrier, about 10 peptides per IgG
With B2 the signal in RFV [9] was 3280 RFV, the signal in RFV [10] was 175 RFV and the signal in RFV [11] was 6210 RFV. It also gave a signal in RFV [12] of 882 RFV, a signal in RFV [13] of 1690 RFV and a signal in RFV [14] of 360 RFV.
